Experimental findings from patent US20140072563A1 (Regeneron, published 2014) are described below.

Substitutions are numbered along the chain they refer to. Numbers in names are those of the source.

The target in assay [1] is ErbB3 (cell surface, on MCF-7, DU145, A431 and MCF7 cells) (human, UniProt P21860 20-1342). In words: cell-based or functional assay.
Assay [2] addresses hErbB3.mmh (soluble monomeric human ErbB3 extracellular domain with C-terminal myc-myc-hexahistidine tag) (human, UniProt P21860 20-642). In words: SPR (Biacore), 25 C, mAb capture format. As for the experimental part: (§1) (Tables 2-4). Measurements were conducted on a Biacore 2000 or T100 instrument. […] Kinetic association (kₐ) and dissociation (kd) rate constants were determined by processing and fitting the data to a 1:1 binding model using Scrubber 2.0 curve fitting software.

The target of assay [3] is T1, hErbB3.hFc (soluble dimeric human ErbB3 extracellular domain fused to human Fc) (human).
T1 construct: called dimeric
Kind of assay: SPR (Biacore), 25 C, mAb capture format. On the procedure:
as §1

The target of assay [4] is T1, hErbB3.hFc (soluble dimeric human ErbB3 …). In words: blocking ELISA: antibody + 50 pM ErbB3-hFc on neuregulin1b-coated plate. From the text:
To further characterize anti-hErbB3 mAbs of the present invention, their ability to block ligand binding was examined via ELISA. […] Plates were washed and non-sequestered (plate bound) ErbB3 was detected with an anti-Fc poly conjugated with horseradish peroxidase (HRP). Plates were developed with TMB (3,3′,5,5′-tetramethylbenzidine) and neutralized with sulfuric acid before reading absorbance at 450 nm on a Victor X5 plate reader. Data analysis used a sigmoidal dose-response model within Prism™ software. […] Maximal blocking for each antibody was calculated by taking the difference in absorbance from zero to 50 nM antibody on the inhibition curve, divided by the difference in absorbance from 50 pM to zero ErbB3 on the dose curve.
(In general: ELISA stands for enzyme-linked immunosorbent assay.)

T1 sequence (chain, as listed by the source limits assumed): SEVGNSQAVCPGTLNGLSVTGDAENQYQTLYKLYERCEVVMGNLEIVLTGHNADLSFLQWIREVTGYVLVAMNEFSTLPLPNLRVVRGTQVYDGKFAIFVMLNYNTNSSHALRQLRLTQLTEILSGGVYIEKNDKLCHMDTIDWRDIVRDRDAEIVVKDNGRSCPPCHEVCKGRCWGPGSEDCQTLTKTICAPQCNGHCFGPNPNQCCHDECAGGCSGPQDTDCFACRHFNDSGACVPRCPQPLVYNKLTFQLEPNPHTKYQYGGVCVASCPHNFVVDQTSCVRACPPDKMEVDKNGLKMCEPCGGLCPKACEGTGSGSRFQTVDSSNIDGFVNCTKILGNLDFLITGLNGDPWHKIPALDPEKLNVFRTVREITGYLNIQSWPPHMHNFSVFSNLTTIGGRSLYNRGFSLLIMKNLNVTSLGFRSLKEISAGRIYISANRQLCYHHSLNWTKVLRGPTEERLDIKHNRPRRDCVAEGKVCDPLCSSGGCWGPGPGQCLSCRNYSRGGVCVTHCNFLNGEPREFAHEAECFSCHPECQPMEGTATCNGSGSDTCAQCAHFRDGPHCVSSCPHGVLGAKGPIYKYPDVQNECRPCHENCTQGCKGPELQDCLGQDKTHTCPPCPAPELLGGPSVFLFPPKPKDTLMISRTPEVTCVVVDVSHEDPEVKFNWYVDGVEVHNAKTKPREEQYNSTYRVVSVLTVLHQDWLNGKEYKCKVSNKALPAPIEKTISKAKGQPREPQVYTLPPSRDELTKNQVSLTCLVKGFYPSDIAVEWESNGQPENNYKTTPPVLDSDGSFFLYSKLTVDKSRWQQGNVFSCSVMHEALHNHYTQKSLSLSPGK
Chain of hErbB3.mmh (soluble monomeric human ErbB3 extracellular domain with C-terminal myc-myc-hexahistidine tag) (P21860 other isoform, or with tags, fused parts or gaps): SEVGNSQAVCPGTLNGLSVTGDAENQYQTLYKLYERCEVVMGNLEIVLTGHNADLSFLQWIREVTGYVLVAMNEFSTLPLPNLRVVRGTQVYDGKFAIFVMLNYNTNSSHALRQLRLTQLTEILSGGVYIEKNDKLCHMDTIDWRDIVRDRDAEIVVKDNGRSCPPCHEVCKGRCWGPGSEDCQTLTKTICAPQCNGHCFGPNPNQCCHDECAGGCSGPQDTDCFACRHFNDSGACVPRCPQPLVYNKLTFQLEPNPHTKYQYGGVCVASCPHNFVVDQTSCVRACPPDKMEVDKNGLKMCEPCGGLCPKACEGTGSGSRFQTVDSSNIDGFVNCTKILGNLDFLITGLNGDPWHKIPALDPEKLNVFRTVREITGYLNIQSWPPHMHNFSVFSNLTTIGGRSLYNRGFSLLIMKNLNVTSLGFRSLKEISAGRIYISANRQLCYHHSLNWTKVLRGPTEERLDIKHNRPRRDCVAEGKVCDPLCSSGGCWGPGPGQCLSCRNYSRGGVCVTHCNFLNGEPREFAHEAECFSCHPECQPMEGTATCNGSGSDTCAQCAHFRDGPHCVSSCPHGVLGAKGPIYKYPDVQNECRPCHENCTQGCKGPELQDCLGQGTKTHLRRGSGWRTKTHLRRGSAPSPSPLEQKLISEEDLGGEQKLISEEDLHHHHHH

B1: H2M1937N (antibody, mouse IgG2, V domains shown)
VH: QVQLQQWDAGLLKPSETLSLTCAVYGGSFSSYYWSWIRQPPGKGLEWIGEINHRGSTNYNPSLKSRVTISVDTSKNQFSLKLRSVTAADTAVYYCARGGVAARPDWHFFDYWGQGTLVTVSS
VL: DIQMTQSPSSLSASVGDRVTITCRASQVIRNDLGWFQQRPGKAPKRLIYAASSLQSEVPSRFSGSGSGTEFTLTITSLQPEDFATYYCLQHNSYPLTFGQGTRLEIK
Turning to B1, in assay [1], the “Percent inhibition of Akt phosphorylation, 0.01 µg/ml ErbB3 antibody, DU145 cells + 0.5 nM NRG1” value was -13%; the “Percent inhibition of Akt phosphorylation, 0.1 µg/ml ErbB3 antibody, DU145 cells + 0.5 nM NRG1” value worked out at 41%; the “Percent inhibition of Akt phosphorylation, 0.5 µg/ml ErbB3 antibody, DU145 cells + 0.5 nM NRG1” value stood at 71%.

B2: H1M1940N (antibody, V domains shown)
VH: QVQVVESGGGVVQPGRSLRLSCAASGFTFSDYGMHWVRQAPGKGLEWVAIISYDGSNKYYADSVKGRFTVSRDNSKNTLYLQLDSLRPEDAAVFYCAREGAFNLDYYAMDVWGQGTTVTVSS
VL: AIQMTQSPSSLSASVGDRVTITCRASQDIRNDLGWYQQKPGKAPNLLIYAASSLQSGVPSRFSGSGSGTDFTLTISSLQPEDFATYYCLQDSNYPLTFGGGTKVEIK
Take B2: in assay [1], the “Percent inhibition of Akt phosphorylation, 0.01 µg/ml ErbB3 antibody, DU145 cells + 0.5 nM NRG1” value worked out at 13%; the “Percent inhibition of Akt phosphorylation, 0.1 µg/ml ErbB3 antibody, DU145 cells + 0.5 nM NRG1” value turned out to be 50%; the “Percent inhibition of Akt phosphorylation, 0.5 µg/ml ErbB3 antibody, DU145 cells + 0.5 nM NRG1” value was determined as 68%.

B3: H2M1930N (antibody, mouse IgG2, V domains shown)
VH: EVQLVESGGGLVKPGGSLRLSCVASGFTFSSYNMNWVRQAPGKGLEWVSFISGSSNYIHYADSVKGRFTISRDNAKNALYLQMNSLRAEDTAVYYCARDDGDYDWFDPWGQGTLVTVSS
VL: EIVLTQSPGTLSLSPGERATLSCRASQSVSSSYLAWYQQKPGQAPRLLIYGTSSRATGIPDRFSGSGSGTDFTLTISRLEPEDFAVYYCQQYDNSYTFGQGTKLEIK
For B3, in assay [1], the “Percent inhibition of Akt phosphorylation, 0.01 µg/ml ErbB3 antibody, DU145 cells + 0.5 nM NRG1” value was 39%; the “Percent inhibition of Akt phosphorylation, 0.1 µg/ml ErbB3 antibody, DU145 cells + 0.5 nM NRG1” value is 64%; the “Percent inhibition of Akt phosphorylation, 0.5 µg/ml ErbB3 antibody, DU145 cells + 0.5 nM NRG1” value came out at 66%.

B4: H2M1934N (antibody, mouse IgG2, V domains shown)
VH: EVQLVQSGGGLVKPGGSLRLSCAASGFTFSNFNMNWVRQAPGKGLEWVSFISSLSTYTYYADSVKGRFTISRDNAKNSLYLQMNSLRAEDTAVYYCARDDGDHDWFDPWGQGTLVTVSS
VL: B3 VL with G9D, S32N, G51S, T52A, S54N, N94S
Turning to B4, in assay [1], the “Percent inhibition of Akt phosphorylation, 0.01 µg/ml ErbB3 antibody, DU145 cells + 0.5 nM NRG1” value was 20%; the “Percent inhibition of Akt phosphorylation, 0.1 µg/ml ErbB3 antibody, DU145 cells + 0.5 nM NRG1” value worked out at 56%; the “Percent inhibition of Akt phosphorylation, 0.5 µg/ml ErbB3 antibody, DU145 cells + 0.5 nM NRG1” value was 67%.

B5: H2M1821N (antibody, V domains shown)
VH: EVQLVESGGGLVQPGRSLRLSCAASGFTFDDYAMHWVRQAPGKGLEWVSSISWNSGSIGYADSVKGRFTISRDNAKNSLYLQMNSLKPEDTALYYCTKDTDYGDYLDAFDIWGQGTMVAVAS
VL: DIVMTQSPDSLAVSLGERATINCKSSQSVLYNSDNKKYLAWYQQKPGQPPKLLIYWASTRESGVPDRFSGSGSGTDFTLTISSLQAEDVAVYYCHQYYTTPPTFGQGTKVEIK
notes: Hybridoma chimeric antibody: human variable domains, mouse IgG2 Fc (H2M prefix)
In general, Kd refers to the free concentration of one partner at which half of the binding sites on the other are occupied at equilibrium, for simple one-to-one binding. High values mean lower affinity, low ones higher affinity. A word on the koff: it is the first-order rate constant of dissociation. High values mean a short-lived complex, low ones a long-lived complex. For orientation: kon means the rate constant with which the complex forms. As usually defined, the IC50 is the concentration needed to halve the response being measured. As to B5, in assay [2], the Kd is 0.867 nM, the T½ came to 0.967 h, the koff was 0.000199 s⁻¹ and the on-rate (kon) was found to be 229000 M⁻¹ s⁻¹. In assay [3], the Kd came out at 0.0413 nM, the T½ amounted to 10.1 h, the off-rate (koff) came to 1.9e-05 s⁻¹ and the kon was 461000 M⁻¹ s⁻¹. Also, in assay [4], the concentration for half-maximal inhibition (IC50) was determined as 0.0285 nM and the “Maximal Blocking (%)” value is 96%.

B6: H2M1938N (antibody, mouse IgG2, V domains shown)
VH: EVQLVESGGGVVRPGGSLRLSCAASGFTFDDYGMSWVRQVPGKGLEWVSGLNWNGGITGYTDSVKGRFTISRDNAKNSLYLQMNSLRAEDTAFYHCARDSGDQDAFDIWGQGTMVTVSS
VL: QIVMTQSPATLSVSPGERATLSCRASQSITPYLAWYQQKPGQTPRLLIYGVSTRATGIPARFSGSGSGTEFTLTISSLQSEDFAVYYCQQYDNWYTFGQGTKLEIK
As to B6, in assay [1], the “Percent inhibition of Akt phosphorylation, 0.01 µg/ml ErbB3 antibody, DU145 cells + 0.5 nM NRG1” value turned out to be 40%; the “Percent inhibition of Akt phosphorylation, 0.1 µg/ml ErbB3 antibody, DU145 cells + 0.5 nM NRG1” value was 63%; the “Percent inhibition of Akt phosphorylation, 0.5 µg/ml ErbB3 antibody, DU145 cells + 0.5 nM NRG1” value was determined as 74%.

B7: H2M1829N (antibody, mouse IgG2, V domains shown)
VH: EVQLVESGGGVVRPGGSLRLSCVASGFTFDDYGMSWVRQAPGKGLECVSGINWNGGSTDYADSVKGRFTISRDNAKNSLYLQMNSLRAEDTALYHCARDGGDWDYFDLWGRGTLVTVSS
VL: EILMTQSPATLSVSPGERATLSCRASQSVSSNLAWYQQKPGQAPRLLIYGASTRATGIPARFSGSGSGTEFTLTISSLQSEDFAIYYCQEYNDWPLTFGGGTKVEIK
As to B7, in assay [1], the “Percent inhibition of Akt phosphorylation, 0.01 µg/ml ErbB3 antibody, DU145 cells + 0.5 nM NRG1” value turned out to be 22%; the “Percent inhibition of Akt phosphorylation, 0.1 µg/ml ErbB3 antibody, DU145 cells + 0.5 nM NRG1” value is 74%; the “Percent inhibition of Akt phosphorylation, 0.5 µg/ml ErbB3 antibody, DU145 cells + 0.5 nM NRG1” value came out at 74%.

B8: H2M1829N (antibody, V domains shown)
VH: B7 VH
VL: B7 VL
notes: as for B5
In assay [2], B8 had a Kd of 0.281 nM, a T½ of 2.98 h, an off-rate (koff) of 6.46e-05 s⁻¹ and a kon of 230000 M⁻¹ s⁻¹. In assay [3], binding was characterised by a dissociation constant (Kd) of 0.0198 nM, the T½ was 22.4 h, the koff was determined as 8.61e-06 s⁻¹ and the kon amounted to 436000 M⁻¹ s⁻¹. For the same molecule, in assay [4], the IC50 turned out to be 0.0238 nM and the “Maximal Blocking (%)” value was 98%.

B9: H2M1827N (antibody, V domains shown)
VH: B7 VH with V23A, N52S, S57N
VL: B7 VL
notes: as for B5
As for B9, in assay [2], the dissociation constant (Kd) stood at 0.409 nM, the T½ came to 2.15 h, the koff turned out to be 8.96e-05 s⁻¹ and the kon came to 219000 M⁻¹ s⁻¹. In assay [3], the Kd came to 0.0173 nM, the T½ amounted to 25.4 h, the koff worked out at 7.58e-06 s⁻¹ and the on-rate (kon) worked out at 439000 M⁻¹ s⁻¹. Further, in assay [4], the IC50 is 0.0229 nM and the “Maximal Blocking (%)” value was 98%.

B10: H2M1824N (antibody, V domains shown)
VH: B7 VH with V23A, L93S, H95Y
VL: B7 VL with L3V, I85V, Y87F
notes: as for B5
In assay [2], B10 returned a dissociation constant Kd of 0.205 nM, a T½ of 4.23 h, a koff of 4.56e-05 s⁻¹ and an association rate constant (kon) of 223000 M⁻¹ s⁻¹. Further, in assay [3], binding was characterised by a dissociation constant (Kd) of 0.00334 nM, the T½ was 134 h, the koff came to 1.44e-06 s⁻¹ and the on-rate (kon) came to 431000 M⁻¹ s⁻¹. Moreover, in assay [4], the 50% inhibitory concentration (IC50) stood at 0.0251 nM and the “Maximal Blocking (%)” value was found to be 99%.

B11: H1M1828N (antibody, V domains shown)
VH: EVQLVESGGGLVQPGRSLRLSCAASGFTFDDYAMYWVRQAPGKGLEWVSGISWNSGSIGYADSVKGRFTISRDNAKNSLYLQMDSLRAEDTALYYCARDMMEVDLYGMDVWGQGTTVTVSS
VL: DIQMTQSPSSVSASVGDRVTITCRASQDISSWLAWYQQKPGTAPKFLIYETSSLQSGVPSRFSGSGSGTDFILTISSLQPEDFATYYCQQTDSFPHTFGQGTKLEIR
With B11, in assay [1], the “Percent inhibition of Akt phosphorylation, 0.01 µg/ml ErbB3 antibody, DU145 cells + 0.5 nM NRG1” value stood at 22%; the “Percent inhibition of Akt phosphorylation, 0.1 µg/ml ErbB3 antibody, DU145 cells + 0.5 nM NRG1” value turned out to be 66%; the “Percent inhibition of Akt phosphorylation, 0.5 µg/ml ErbB3 antibody, DU145 cells + 0.5 nM NRG1” value was 75%.

B12: H2M1936N (antibody, mouse IgG2, V domains shown)
VH: EMQLVESGGGLVQPDRSLRLSCAASGFNFDNYAIHWVRQAPGKGLEWVSGISWNSGNIGYADSVKGRFTISRDNAKNSLFLLMNSLRPDDSALYYCTRGYNWNALSPMDVWGQGTTVTVSS
VL: DIQMTQSPSSLSASVGDRVTVTCRASQGISNYLAWYQQKPGKVPKLLIYAASTLQSGVPSRFSGSGSGTDFTLTISSLQPEDVASYYCQNYNSAPMTFGQGTKVEIK
On to B12, for which, in assay [1], the “Percent inhibition of Akt phosphorylation, 0.01 µg/ml ErbB3 antibody, DU145 cells + 0.5 nM NRG1” value came to 6%; the “Percent inhibition of Akt phosphorylation, 0.1 µg/ml ErbB3 antibody, DU145 cells + 0.5 nM NRG1” value came out at 30%; the “Percent inhibition of Akt phosphorylation, 0.5 µg/ml ErbB3 antibody, DU145 cells + 0.5 nM NRG1” value is 67%.

B13: H1M1819N (antibody, V domains shown)
VH: EVQLVESGGGVVRPGGSLRLSCAASGFTFDDYAMHWVRQAPGKGLEWVAGISWNSGSIDYADSVKGRFTISRDNAKNSLYLQMNSLRAGDTALYYCAKDILDLDYYGLDVWGQGTTVTVSS
VL: B12 VL with V21I, G28D, N31S, K45N, A50D, T53S, I75L, V83F, M96Y, V104L
notes: Hybridoma chimeric antibody: human variable domains, mouse constant domains (H1M prefix, mouse Fc)
In assay [2], B13 displayed a Kd of 1.01 nM, a T½ of 0.6 h, an off-rate (koff) of 0.000322 s⁻¹ and a kon of 319000 M⁻¹ s⁻¹. Further, in assay [3], binding was put at a Kd of 0.122 nM, the T½ was 3.27 h, the dissociation rate constant (koff) was 5.88e-05 s⁻¹ and the kon is 480000 M⁻¹ s⁻¹. For the same molecule, in assay [4], the IC50 stood at 0.0315 nM and the “Maximal Blocking (%)” value came to 92%.
